Experimental findings from the Human Domainome abundance scans (Beltran et al. 2025) are described below.

± gives the uncertainty stated by the source.

The chains are these.
B1: Ras GTPase-activating protein 1, residues 281 to 341; numbered along this chain, P20936 (parent)
chain: RRRVRAILPYTKVPDTDEISFLKGDMFIVHNELEDGWMWVTNLRTDEQGLIVEDLVEEVGR

This data set covers variants of B1. In words: abundance fitness (aPCA) (normalised: wild type 0, dead -1); higher = more abundant; growth selection in yeast, the domain comes from the species named. As to conditions: Homo sapiens.
For the variant RRRVRAILPYTKVPDTDEISFLKGDMFIVHNELEDGWMWVTNLRTDEQGLIVEDLVEEVGA [R61A], the abundance fitness amounted to 0.067 ± 0.051.
Consider RRRVRAILPYTKVPDTDEISFLKGDMFIVHNELEDRWMWVTNLRTDEQGLIVEDLVEEVGR [G36R], for which the abundance fitness was -0.188 ± 0.028.
For RRRVRAILPYTKVPDTDEISFLKGDMFIVHNELEDMWMWVTNLRTDEQGLIVEDLVEEVGR [G36M] the value was -0.928 ± 0.12; for RRRVRAILPYTKVPDTDEISFLKGDMFIVHNELEDGCMWVTNLRTDEQGLIVEDLVEEVGR [W37C], -0.016 ± 0.021.
With RRRVRAILPYTKVPDTDEISFLKGDMFIVHNELQDGWMWVTNLRTDEQGLIVEDLVEEVGR [E34Q], the abundance fitness was 0.074 ± 0.073.
Consider RRRVRAILPYTKVPDTDEISFLKGDMFIVHNELSDGWMWVTNLRTDEQGLIVEDLVEEVGR [E34S], for which the abundance fitness is -0.01 ± 0.028.
Take RRRVRAILPYTKVPDTDEISFLKGDMFKVHNELEDGWMWVTNLRTDEQGLIVEDLVEEVGR [I28K]: the abundance fitness was -0.07 ± 0.033.
Under RRRVRAILPYTKVPDTDEISFLKGDMFTVHNELEDGWMWVTNLRTDEQGLIVEDLVEEVGR [I28T] stands -0.011 ± 0.023; under RRRVRAILPYTKVPDTDEISFLSGDMFIVHNELEDGWMWVTNLRTDEQGLIVEDLVEEVGR [K23S], -0.102 ± 0.02; under RRRVRAILPYTKVPDTDEISFLHGDMFIVHNELEDGWMWVTNLRTDEQGLIVEDLVEEVGR [K23H], -0.313 ± 0.031.
RRRVRAILPYTKVPDTDEISFLNGDMFIVHNELEDGWMWVTNLRTDEQGLIVEDLVEEVGR [K23N]: the abundance fitness was -0.246 ± 0.023.
For the variant RRRVRAILPYTKVPDTDEISFLPGDMFIVHNELEDGWMWVTNLRTDEQGLIVEDLVEEVGR [K23P], the abundance fitness is -0.048 ± 0.034.
On to RRRVRAILPYTKVPDTDEISFLKGDMFIVHNELEDGWMWVTNLRTDEQGLIVEDLVEETGR [V59T], for which the abundance fitness is -0.113 ± 0.031.
For RRRVRAILPYTKVPDTDEISFLKGDMFIVHNELEDGWMWVTNLRTDEQGLIVEDLVEENGR [V59N] the value was -0.19 ± 0.033; for RRRVRAILPYTKVPDTDEISFLKGDMFIVHNELEDGWMWVTNLRTDEQGLIVEDLVEEMGR [V59M], -0.027 ± 0.047.
Regarding RRRVRAILPYTAVPDTDEISFLKGDMFIVHNELEDGWMWVTNLRTDEQGLIVEDLVEEVGR [K12A], the abundance fitness was -0.029 ± 0.032.
Turning to RRRVRAILPYTQVPDTDEISFLKGDMFIVHNELEDGWMWVTNLRTDEQGLIVEDLVEEVGR [K12Q], the abundance fitness was -0.202 ± 0.096.
For RRRVRAILPYTKVPDTDEISFSKGDMFIVHNELEDGWMWVTNLRTDEQGLIVEDLVEEVGR [L22S], the abundance fitness is -0.108 ± 0.029.
RRRVRAILPYTKVPDTDEISFNKGDMFIVHNELEDGWMWVTNLRTDEQGLIVEDLVEEVGR [L22N]: the abundance fitness is -0.013 ± 0.034.
On to RRRVRAILPYTKVPDTDEISFLKGDMFIVHNETEDGWMWVTNLRTDEQGLIVEDLVEEVGR [L33T], for which the abundance fitness was -0.03 ± 0.03.
As to RRRVRAILPYTKVPDTDEISFLKGDMFIVHNECEDGWMWVTNLRTDEQGLIVEDLVEEVGR [L33C], the abundance fitness was -0.07 ± 0.026.
For the variant RRRVRAILPYTKVPDTDEISFLKGSMFIVHNELEDGWMWVTNLRTDEQGLIVEDLVEEVGR [D25S], the abundance fitness is -0.874 ± 0.042.
In the case of RRRVRAILPYTKVPDTDEISFLKGRMFIVHNELEDGWMWVTNLRTDEQGLIVEDLVEEVGR [D25R], the abundance fitness was -0.997 ± 0.062.
As for RRRVRAILPYYKVPDTDEISFLKGDMFIVHNELEDGWMWVTNLRTDEQGLIVEDLVEEVGR [T11Y], the abundance fitness is -0.278 ± 0.029.
RRRVRAILPYHKVPDTDEISFLKGDMFIVHNELEDGWMWVTNLRTDEQGLIVEDLVEEVGR [T11H]: the abundance fitness is -0.129 ± 0.031.
Take RRRVRAICPYTKVPDTDEISFLKGDMFIVHNELEDGWMWVTNLRTDEQGLIVEDLVEEVGR [L8C]: the abundance fitness was -0.052 ± 0.026.
Turning to RRRVRAILPYTKVPDIDEISFLKGDMFIVHNELEDGWMWVTNLRTDEQGLIVEDLVEEVGR [T16I], the abundance fitness is -0.879 ± 0.059.
In the case of RRRVRAILPYTKVPDMDEISFLKGDMFIVHNELEDGWMWVTNLRTDEQGLIVEDLVEEVGR [T16M], the abundance fitness is -0.87 ± 0.12.
As to RRRVRAILPYTKVPDTDEISWLKGDMFIVHNELEDGWMWVTNLRTDEQGLIVEDLVEEVGR [F21W], the abundance fitness is -0.92 ± 0.068.
For RRRVRAILPYTKVPDTDEISKLKGDMFIVHNELEDGWMWVTNLRTDEQGLIVEDLVEEVGR [F21K] the value was -0.988 ± 0.081; for RRRVRAILPYTKVPDTDEISFLKGDMFIVHNELEDGWMWVTNLRTDEQGLLVEDLVEEVGR [I51L], -0.157 ± 0.029; for RRRVRAILPYTKVPDTDEISFLKGDMFIVHNELEDGWMWVTNLRTCEQGLIVEDLVEEVGR [D46C], -0.002 ± 0.026.
For RRRVRAILPYTKVPDTDEISFLKGDMFIVHNELEDGWMWVTNLRTIEQGLIVEDLVEEVGR [D46I] the value was -0.085 ± 0.026; for RRRVRAILPYTKVPDTDEISFLKGDMFIVHNELEDGWMWVTNLRTREQGLIVEDLVEEVGR [D46R], 0.019 ± 0.028; for RRRVRAILPYTKVPDTDEISFLKGDMFIVHNELEDGWMWVTNLRTDEQGLIDEDLVEEVGR [V52D], -0.121 ± 0.031.
On to RRRVRAILPYTKVPDTDEISFLKGDMFIVHNELEDGWMWVTNLRTDEQGLICEDLVEEVGR [V52C], for which the abundance fitness turned out to be 0.024 ± 0.027.
For RRRVRAILPYTKVPDTDEISFLKGDMFIVHNELEDGWMWVTNLRTDEQGLINEDLVEEVGR [V52N], the abundance fitness was 0.015 ± 0.028.
RRRVRAILPYTKVPDTDEISFLKGDMFIVHNELEDGWMWVTNLRTDEQGLIHEDLVEEVGR [V52H]: the abundance fitness is 0.029 ± 0.031.
For RRRVRAILPYTKVPDTDEISFLKGDMFIVHNTLEDGWMWVTNLRTDEQGLIVEDLVEEVGR [E32T] the value was 0.003 ± 0.031.
Turning to RRRVRAILPYTKVPDTDEISFLKGDMFIVHNILEDGWMWVTNLRTDEQGLIVEDLVEEVGR [E32I], the abundance fitness was 0.031 ± 0.03.
RRRVRAILPYTKVPDTCEISFLKGDMFIVHNELEDGWMWVTNLRTDEQGLIVEDLVEEVGR [D17C]: the abundance fitness is -0.105 ± 0.03.
As for RRRVRAILPYTKVPDTDEISFLKGDMFIVHNELEDGWMWVTNLRTDEQGLIVELLVEEVGR [D54L], the abundance fitness was -0.281 ± 0.041.
In the case of RRRVRAILPYTKVPDTDEISFLKGDMFIVHNELEDGWMGVTNLRTDEQGLIVEDLVEEVGR [W39G], the abundance fitness was -0.67 ± 0.024.
